Measured values taken from publication PMC2930068.
Like-named read-outs stand apart in the source and are kept apart here. Square brackets hold non-standard residues; d marks the D form. Ends that are not written are not given here. pS = N[C@@H](COP(=O)(O)O)C(=O)O

Key:
[1] = biological target: importin α5 (79-538) in the ITC cell (human) (UniProt P52294); experiment: ITC
[2] = biological target: importin α5 (79-538) in the ITC cell (human) (UniProt P52294); experiment: ITC; remark: listed apart in the source

B1: phosphorylated EBNA-1 NLS peptide (379-KRPRSPpSS-386) (peptide)
peptide: KRPRSP[pS]S
Question: For B1, which dH [1] is on record?
Answer: Its dH is 29.1 kJ/mol.

B2: unphosphorylated EBNA-1 NLS peptide (379-KRPRSPSS-386) (peptide)
peptide: KRPRSPSS
modifications: not fully specified
Question: How did the Kd [2] turn out when B2 was run?
Answer: The Kd was 60 µM.

Question: What about the Kd [1] of the same binder?
Answer: Its Kd is 30 µM.

Question: What about the dH [1] of the same binder?
Answer: The dH was 27.4 kJ/mol.
